Source: patent US20050143472A1, “Novel treatment for pathologies associated with oxidative damage” (priority 2002, published 2005)

Test: Freeze/thaw stability of recombinant mPAO activity
Assay type: physicochemical
Method: Using the conditions for the steady-state kinetic assay described below, mPAO was determined to be stable at 2-4 mg/mL when frozen at −20° C. or −80° C. and thawed through several cycles. […] Thus, mPAO was stored at −20° C. in the presence of 33% (v/v) ethylene glycol. Ethylene glycol elimination and buffer exchange was accomplished easily by several concentration/dilution cycles using Centricon-10 centrifuge concentrators.

B1: mPAO: recombinant murine peroxisomal polyamine oxidase (SEQ ID NO:4) produced in E. coli (protein, listed as Mus musculus)
chain: MAFPGPRVLVVGSGIAGLGAAQKLCSHRAAPHLRVLEATASAGGRIRSERCFGGVVELGAHWIHGPSQDNPVFQLAAEFGLLGEKELSEENQLVDTGGHVALPSMIWSSSGTSVSLELMTEMARLFYGLIERTREFLNESETPMASVGEFLKKEISQQVASWTEDDEDTRKRKLAILNTFFNIKCCVSGTHSMDLVALAPFGEYTVLPGLDCILAGGYQGLTDRILASLPKDTVAFDKPVKTIHWNGSFQEAAFPGETFPVLVECEDGARLPAHHVIVTVPLGFSKEHQDTFFEPPLPAKKAEAIKKLGFGTNNKIFLEFEEPFWEPDCQFIQVVWEDTSPLQDTALSLQDTWFKKLIGFLVQPSFESSHVLCGFIAGLESEFMETLSDEEVLLSLTQVLRRVTGNPQLPAAKSVLSSRWHSAPYTRGSYSYVAVGSTGDDLDLMAQPLPADGTGTQLQVLFAGEATHRTFYSTTHGALLSGWREADRLIGLWDSQAEQSRPRL
stability of activity on freezing and thawing (30 μg/mL, several freeze/thaw cycles): activity was lost quickly | stability of activity on freezing and thawing (2-4 mg/mL, frozen at −20° C. or −80° C., several cycles): stable | stability of activity on freezing and thawing (33% (v/v) ethylene glycol added, 20 μg/mL to 4 mg/mL): stable for several cycles of freezing and thawing
